Laboratory results: publication PMC4574351, “Tubulin cofactors and Arl2 are cage-like chaperones that regulate the soluble αβ-tubulin pool for microtubule dynamics” (eLife, 2015)

What was measured:
[1] = target: TBC-DEG:αβ-tubulin complex (S. cerevisiae | porcine) (UniProt P40987)
[2] = target: TBC-DEG complex (TBCD-TBCE-Arl2 GTPase heterotrimer) (S. cerevisiae) (UniProt P40987)
[3] = target: TBC-DEG complex (TBCD-TBCE-Arl2 GTPase heterotrimer) (S. cerevisiae) (UniProt P40987); remark: listed apart in the source
[4] = target: TBC-DEG complex (TBCD-TBCE-Arl2 GTPase heterotrimer) (S. cerevisiae) (UniProt P40987); test: SEC-MALS; WTC-03S5 column; purified TBC-DEG (subunits co-expressed and co-purified), αβ-tubulin, TBCC and their complexes; ternary complex with GDP·ALFx (wild type) or GTP (Q73L)

Chain of TBC-DEG complex (TBCD-TBCE-Arl2 GTPase heterotrimer) (S. cerevisiae) (P40987 whole entry, chain 1 of 3): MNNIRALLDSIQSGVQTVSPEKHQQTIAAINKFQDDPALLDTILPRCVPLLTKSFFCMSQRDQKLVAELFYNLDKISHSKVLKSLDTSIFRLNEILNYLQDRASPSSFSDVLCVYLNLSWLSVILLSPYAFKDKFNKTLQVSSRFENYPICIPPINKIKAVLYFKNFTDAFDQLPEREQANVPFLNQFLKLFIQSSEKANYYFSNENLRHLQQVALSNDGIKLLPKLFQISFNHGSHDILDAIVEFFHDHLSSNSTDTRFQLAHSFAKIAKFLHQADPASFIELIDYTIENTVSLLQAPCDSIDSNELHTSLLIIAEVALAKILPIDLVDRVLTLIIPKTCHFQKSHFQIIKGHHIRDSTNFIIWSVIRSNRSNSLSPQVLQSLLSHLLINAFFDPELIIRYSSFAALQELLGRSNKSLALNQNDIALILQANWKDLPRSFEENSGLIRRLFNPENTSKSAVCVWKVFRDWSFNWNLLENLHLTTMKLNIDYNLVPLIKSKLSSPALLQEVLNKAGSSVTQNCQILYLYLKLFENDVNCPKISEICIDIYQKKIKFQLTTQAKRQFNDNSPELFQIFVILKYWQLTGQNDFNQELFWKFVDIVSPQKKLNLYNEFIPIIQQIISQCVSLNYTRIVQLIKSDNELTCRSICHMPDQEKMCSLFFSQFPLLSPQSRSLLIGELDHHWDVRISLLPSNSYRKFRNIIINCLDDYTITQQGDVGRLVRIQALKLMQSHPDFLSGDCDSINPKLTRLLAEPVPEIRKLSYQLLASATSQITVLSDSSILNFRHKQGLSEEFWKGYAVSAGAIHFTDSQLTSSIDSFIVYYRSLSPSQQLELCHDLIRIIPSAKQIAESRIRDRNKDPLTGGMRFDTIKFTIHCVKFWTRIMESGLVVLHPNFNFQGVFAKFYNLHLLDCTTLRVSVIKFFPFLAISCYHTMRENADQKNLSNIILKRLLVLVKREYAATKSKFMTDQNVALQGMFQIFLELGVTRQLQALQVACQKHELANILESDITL
Chain of TBC-DEG complex (TBCD-TBCE-Arl2 GTPase heterotrimer) (S. cerevisiae) (P39937 whole entry, chain 2 of 3, further chain): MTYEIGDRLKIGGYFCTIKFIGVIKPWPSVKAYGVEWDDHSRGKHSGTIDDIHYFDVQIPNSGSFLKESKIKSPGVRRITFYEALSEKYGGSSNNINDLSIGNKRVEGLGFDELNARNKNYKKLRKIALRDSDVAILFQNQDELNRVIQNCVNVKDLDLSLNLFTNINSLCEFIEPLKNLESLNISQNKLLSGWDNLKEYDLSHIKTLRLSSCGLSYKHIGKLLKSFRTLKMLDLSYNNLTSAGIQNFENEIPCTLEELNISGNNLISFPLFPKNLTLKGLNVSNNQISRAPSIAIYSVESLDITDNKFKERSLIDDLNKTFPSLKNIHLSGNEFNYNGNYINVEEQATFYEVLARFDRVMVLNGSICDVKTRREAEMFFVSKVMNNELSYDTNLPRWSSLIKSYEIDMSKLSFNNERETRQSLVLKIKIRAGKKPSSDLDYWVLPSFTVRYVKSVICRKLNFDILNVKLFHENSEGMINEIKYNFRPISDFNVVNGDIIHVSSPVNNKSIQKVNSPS
Chain of TBC-DEG complex (TBCD-TBCE-Arl2 GTPase heterotrimer) (S. cerevisiae) (P39110 whole entry, chain 3 of 3, further chain): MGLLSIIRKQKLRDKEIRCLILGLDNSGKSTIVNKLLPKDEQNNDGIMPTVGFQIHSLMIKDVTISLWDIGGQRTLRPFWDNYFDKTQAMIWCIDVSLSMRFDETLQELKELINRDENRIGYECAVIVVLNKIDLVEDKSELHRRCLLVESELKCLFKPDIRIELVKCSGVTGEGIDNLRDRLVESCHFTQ

TBCC loop-deleted mutant Δ233-245 (from UniProt P46670 1-232; P46670 246-267) (natural protein)
steady-state GTP hydrolysis kcat, 1 μM TBC-DEG:1 μM TBCC-Δ233-245:1 μM αβ-tub [1]: 5670 M⁻¹ s⁻¹

Tubulin cofactor C (TBCC), S. cerevisiae Cin2p (from UniProt P46670 1-268) (natural protein)
steady-state GTP hydrolysis kcat (malachite green), 1 μM TBC-DEG:1 μM TBCC [2]: 12800 M⁻¹ s⁻¹

porcine brain αβ-tubulin dimer (from UniProt P02550 1-451; P02554 1-445) (complex)
steady-state GTP hydrolysis kcat (malachite green), 1 μM TBC-DEG:1 μM αβ-tub [2]: 6670 M⁻¹ s⁻¹
steady-state GTP hydrolysis kcat, 1 μM TBC-DEG and 1 μM TBCC with αβ-tubulin titrated 0.25-3.0 μM (kcat 1.10 to 2.77) [2]: 46200 M⁻¹ s⁻¹
steady-state GTP hydrolysis kcat at 3 μM αβ-tubulin, 1:3:1 TBCC:αβ-tubulin:TBC-DEG (number as in the text) [3]: 0.05 s⁻¹
stoichiometry N [4]: 1
